# Tested on: KDM4A-I71AzF
# Experiment: CASI: photo-crosslinking with HEK293T cell extracts, StrepTactin enrichment and LC-MS/MS proteomics;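 also: lysates from HEK293T cells pretreated with a KDM4 inhibitor to raise proteome methylation, affinity-purified after ±UV, gel-resolved, trypsin-digested, with exclusive unique peptides per protein averaged per condition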
# Assay type: binding, human
# Conditions: sheet "Final results but with 0.01"
row,Molecule,Fold change (+UV/-UV)
1,"CATA_HUMAN (protein, UniProt P04040 2-527, looked up) Catalase: ADSRDPASDQMQHWKEQRAAQKADVLTTGAGNPVGDKLNVITVGPRGPLLVQDVVFTDEMAHFDRERIPERVVHAKGAGAFGYFEVTHDITKYSKAKVFEHIGKKTPIAVRFSTVAGESGSADTVRDPRGFAVKFYTEDGNWDLVGNNTPIFFIRDPILFPSFIHSQKRNPQTHLKDPDMVWDFWSLRPESLHQVSFLFSDRGIPDGHRHMNGYGSHTFKLVNANGEAVYCKFHYKTDQGIKNLSVEDAARLSQEDPDYGIRDLFNAIATGKYPSWTFYIQVMTFNQAETFPFNPFDLTKVWPHKDYPLIPVGKLVLNRNPVNYFAEVEQIAFDPSNMPPGIEASPDKMLQGRLFAYPDTHRHRLGPNYLHIPVNCPYRARVANYQRDGPMCMQDNQGGAPNYYPNSFGAPEQQPSALEHSIQYSGEVRRFNTANDDNVTQVRAFYVNVLNEEQRKRLCENIAGHLKDAQIFIQKKAVKNFTEVHPDYGSHIQALLDKYNAEKPKNAIHTFVQSGSHLAAREKANL",2
2,"IDHP_HUMAN (protein, UniProt P48735 40-452, looked up) Isocitrate dehydrogenase …: ADKRIKVAKPVVEMDGDEMTRIIWQFIKEKLILPHVDIQLKYFDLGLPNRDQTDDQVTIDSALATQKYSVAVKCATITPDEARVEEFKLKKMWKSPNGTIRNILGGTVFREPIICKNIPRLVPGWTKPITIGRHAHGDQYKATDFVADRAGTFKMVFTPKDGSGVKEWEVYNFPAGGVGMGMYNTDESISGFAHSCFQYAIQKKWPLYMSTKNTILKAYDGRFKDIFQEIFDKHYKTDFDKNKIWYEHRLIDDMVAQVLKSSGGFVWACKNYDGDVQSDILAQGFGSLGLMTSVLVCPDGKTIEAEAAHGTVTRHYREHQKGRPTSTNPIASIFAWTRGLEHRGKLDGNQDLIRFAQMLEKVCVETVESGAMTKDLAGCIHGLSNVKLNEHFLNTTDFLDTIKSNLDRALGRQ",0.4
3,"SYYM_HUMAN (protein, UniProt Q9Y2Z4 17-477, looked up) Tyrosine--tRNA ligase, …: TLNLSVLLPLGLRKAHSGAQGLLAAQKARGLFKDFFPETGTKIELPELFDRGTASFPQTIYCGFDPTADSLHVGHLLALLGLFHLQRAGHNVIALVGGATARLGDPSGRTKEREALETERVRANARALRLGLEALAANHQQLFTDGRSWGSFTVLDNSAWYQKQHLVDFLAAVGGHFRMGTLLSRQSVQLRLKSPEGMSLAEFFYQVLQAYDFYYLFQRYGCRVQLGGSDQLGNIMSGYEFINKLTGEDVFGITVPLITSTTGAKLGKSAGNAVWLNRDKTSPFELYQFFVRQPDDSVERYLKLFTFLPLPEIDHIMQLHVKEPERRGPQKRLAAEVTKLVHGREGLDSAKRCTQALYHSSIDALEVMSDQELKELFKEAPFSEFFLDPGTSVLDTCRKANAIPDGPRGYRMITEGGVSINHQQVTNPESVLIVGQHILKNGLSLLKIGKRNFYIIKWLQL",2
4,"CBS_HUMAN (protein, UniProt P35520 1-551, looked up) Cystathionine beta-synthase: MPSETPQAEVGPTGCPHRSGPHSAKGSLEKGSPEDKEAKEPLWIRPDAPSRCTWQLGRPASESPHHHTAPAKSPKILPDILKKIGDTPMVRINKIGKKFGLKCELLAKCEFFNAGGSVKDRISLRMIEDAERDGTLKPGDTIIEPTSGNTGIGLALAAAVRGYRCIIVMPEKMSSEKVDVLRALGAEIVRTPTNARFDSPESHVGVAWRLKNEIPNSHILDQYRNASNPLAHYDTTADEILQQCDGKLDMLVASVGTGGTITGIARKLKEKCPGCRIIGVDPEGSILAEPEELNQTEQTTYEVEGIGYDFIPTVLDRTVVDKWFKSNDEEAFTFARMLIAQEGLLCGGSAGSTVAVAVKAAQELQEGQRCVVILPDSVRNYMTKFLSDRWMLQKGFLKEEDLTEKKPWWWHLRVQELGLSAPLTVLPTITCGHTIEILREKGFDQAPVVDEAGVILGMVTLGNMLSSLLAGKVQPSDQVGKVIYKQFKQIRLTDTLGRLSHILEMDHFALVVHEQIQYHSTGKSSQRQMVFGVVTAIDLLNFVAAQERDQK",1.4
5,"CH60_HUMAN (protein, UniProt P10809 27-573, looked up) 60 kDa heat shock protein, …: AKDVKFGADARALMLQGVDLLADAVAVTMGPKGRTVIIEQSWGSPKVTKDGVTVAKSIDLKDKYKNIGAKLVQDVANNTNEEAGDGTTTATVLARSIAKEGFEKISKGANPVEIRRGVMLAVDAVIAELKKQSKPVTTPEEIAQVATISANGDKEIGNIISDAMKKVGRKGVITVKDGKTLNDELEIIEGMKFDRGYISPYFINTSKGQKCEFQDAYVLLSEKKISSIQSIVPALEIANAHRKPLVIIAEDVDGEALSTLVLNRLKVGLQVVAVKAPGFGDNRKNQLKDMAIATGGAVFGEEGLTLNLEDVQPHDLGKVGEVIVTKDDAMLLKGKGDKAQIEKRIQEIIEQLDVTTSEYEKEKLNERLAKLSDGVAVLKVGGTSDVEVNEKKDRVTDALNATRAAVEEGIVLGGGCALLRCIPALDSLTPANEDQKIGIEIIKRTLKIPAMTIAKNAGVEGSLIVEKIMQSSSEVGYDAMAGDFVNMVEKGIIDPTKVVRTALLDAAGVASLLTTAEVVVTEIPKEEKDPGMGAMGGMGGGMGGGMF",1.043
6,"GLYM_HUMAN (protein, UniProt P34897 30-504, looked up) Serine …: NAAQTQTGEANRGWTGQESLSDSDPEMWELLQREKDRQCRGLELIASENFCSRAALEALGSCLNNKYSEGYPGKRYYGGAEVVDEIELLCQRRALEAFDLDPAQWGVNVQPYSGSPANLAVYTALLQPHDRIMGLDLPDGGHLTHGYMSDVKRISATSIFFESMPYKLNPKTGLIDYNQLALTARLFRPRLIIAGTSAYARLIDYARMREVCDEVKAHLLADMAHISGLVAAKVIPSPFKHADIVTTTTHKTLRGARSGLIFYRKGVKAVDPKTGREIPYTFEDRINFAVFPSLQGGPHNHAIAAVAVALKQACTPMFREYSLQVLKNARAMADALLERGYSLVSGGTDNHLVLVDLRPKGLDGARAERVLELVSITANKNTCPGDRSAITPGGLRLGAPALTSRQFREDDFRRVVDFIDEGVNIGLEVKSKTAKLQDFKSFLLKDSETSQRLANLRQRVEQFARAFPMPGFDEH",0.3333
7,"PUR8_HUMAN (protein, UniProt P30566 2-484, looked up) Adenylosuccinate lyase: AAGGDHGSPDSYRSPLASRYASPEMCFVFSDRYKFRTWRQLWLWLAEAEQTLGLPITDEQIQEMKSNLENIDFKMAAEEEKRLRHDVMAHVHTFGHCCPKAAGIIHLGATSCYVGDNTDLIILRNALDLLLPKLARVISRLADFAKERASLPTLGFTHFQPAQLTTVGKRCCLWIQDLCMDLQNLKRVRDDLRFRGVKGTTGTQASFLQLFEGDDHKVEQLDKMVTEKAGFKRAFIITGQTYTRKVDIEVLSVLASLGASVHKICTDIRLLANLKEMEEPFEKQQIGSSAMPYKRNPMRSERCCSLARHLMTLVMDPLQTASVQWFERTLDDSANRRICLAEAFLTADTILNTLQNISEGLVVYPKVIERRIRQELPFMATENIIMAMVKAGGSRQDCHEKIRVLSQQAASVVKQEGGDNDLIERIQVDAYFSPIHSQLDHLLDPSSFTGRASQQVQRFLEEEVYPLLKPYESVMKVKAELCL",0.3333
8,"MCCB_HUMAN (protein, UniProt Q9HCC0 23-563, looked up) Methylcrotonoyl-CoA …: YHGDSVASLGTQPDLGSALYQENYKQMKALVNQLHERVEHIKLGGGEKARALHISRGKLLPRERIDNLIDPGSPFLELSQFAGYQLYDNEEVPGGGIITGIGRVSGVECMIIANDATVKGGAYYPVTVKKQLRAQEIAMQNRLPCIYLVDSGGAYLPRQADVFPDRDHFGRTFYNQAIMSSKNIAQIAVVMGSCTAGGAYVPAMADENIIVRKQGTIFLAGPPLVKAATGEEVSAEDLGGADLHCRKSGVSDHWALDDHHALHLTRKVVRNLNYQKKLDVTIEPSEEPLFPADELYGIVGANLKRSFDVREVIARIVDGSRFTEFKAFYGDTLVTGFARIFGYPVGIVGNNGVLFSESAKKGTHFVQLCCQRNIPLLFLQNITGFMVGREYEAEGIAKDGAKMVAAVACAQVPKITLIIGGSYGAGNYGMCGRAYSPRFLYIWPNARISVMGGEQAANVLATITKDQRAREGKQFSSADEAALKEPIIKKFEEEGNPYYSSARVWDDGIIDPADTRLVLGLSFSAALNAPIEKTDFGIFRM",0.9333
9,"TPP1_HUMAN (protein, UniProt O14773 196-563, looked up) Tripeptidyl-peptidase 1: LHLGVTPSVIRKRYNLTSQDVGSGTSNNSQACAQFLEQYFHDSDLAQFMRLFGGNFAHQASVARVVGQQGRGRAGIEASLDVQYLMSAGANISTWVYSSPGRHEGQEPFLQWLMLLSNESALPHVHTVSYGDDEDSLSSAYIQRVNTELMKAAARGLTLLFASGDSGAGCWSVSGRHQFRPTFPASSPYVTTVGGTSFQEPFLITNEIVDYISGGGFSNVFPRPSYQEEAVTKFLSSSPHLPPSSYFNASGRAYPDVAALSDGYWVVSNRVPIPWVSGTSASTPVFGGILSLINEHRILSGRPPLGFLNPRLYQQHGAGLFDVTRGCHESCLDEEVEGQGFCSGPGWDPVTGWGTPNFPALLKTLLNP",0
10,"RAD50_HUMAN (protein, UniProt Q92878 1-1312, looked up) DNA repair protein RAD50: MSRIEKMSILGVRSFGIEDKDKQIITFFSPLTILVGPNGAGKTTIIECLKYICTGDFPPGTKGNTFVHDPKVAQETDVRAQIRLQFRDVNGELIAVQRSMVCTQKSKKTEFKTLEGVITRTKHGEKVSLSSKCAEIDREMISSLGVSKAVLNNVIFCHQEDSNWPLSEGKALKQKFDEIFSATRYIKALETLRQVRQTQGQKVKEYQMELKYLKQYKEKACEIRDQITSKEAQLTSSKEIVKSYENELDPLKNRLKEIEHNLSKIMKLDNEIKALDSRKKQMEKDNSELEEKMEKVFQGTDEQLNDLYHNHQRTVREKERKLVDCHRELEKLNKESRLLNQEKSELLVEQGRLQLQADRHQEHIRARDSLIQSLATQLELDGFERGPFSERQIKNFHKLVRERQEGEAKTANQLMNDFAEKETLKQKQIDEIRDKKTGLGRIIELKSEILSKKQNELKNVKYELQQLEGSSDRILELDQELIKAERELSKAEKNSNVETLKMEVISLQNEKADLDRTLRKLDQEMEQLNHHTTTRTQMEMLTKDKADKDEQIRKIKSRHSDELTSLLGYFPNKKQLEDWLHSKSKEINQTRDRLAKLNKELASSEQNKNHINNELKRKEEQLSSYEDKLFDVCGSQDFESDLDRLKEEIEKSSKQRAMLAGATAVYSQFITQLTDENQSCCPVCQRVFQTEAELQEVISDLQSKLRLAPDKLKSTESELKKKEKRRDEMLGLVPMRQSIIDLKEKEIPELRNKLQNVNRDIQRLKNDIEEQETLLGTIMPEEESAKVCLTDVTIMERFQMELKDVERKIAQQAAKLQGIDLDRTVQQVNQEKQEKQHKLDTVSSKIELNRKLIQDQQEQIQHLKSTTNELKSEKLQISTNLQRRQQLEEQTVELSTEVQSLYREIKDAKEQVSPLETTLEKFQQEKEELINKKNTSNKIAQDKLNDIKEKVKNIHGYMKDIENYIQDGKDDYKKQKETELNKVIAQLSECEKHKEKINEDMRLMRQDIDTQKIQERWLQDNLTLRKRNEELKEVEEERKQHLKEMGQMQVLQMKSEHQKLEENIDNIKRNHNLALGRQKGYEEEIIHFKKELREPQFRDAEEKYREMMIVMRTTELVNKDLDIYYKTLDQAIMKFHSMKMEEINKIIRDLWRSTYRGQDIEYIEIRSDADENVSASDKRRNYNYRVVMLKGDTALDMRGRCSAGQKVLASLIIRLALAETFCLNCGIIALDEPTTNLDRENIESLAHALVEIIKSRSQQRNFQLLVITHDEDFVELLGRSEYVEKFYRIKKNIDQCSEIVKCSVSSLGFNVH",200

# Source: article PMC10540216, “Activity Guided Azide-methyllysine Photo-trapping for Substrate Profiling of Lysine Demethylases” (Journal of the American Chemical Society, 2023)
